Assay results taken from patent publication US20140157444A1 (COUNCIL OF SCIENTIFIC AND INDUSTRIAL RESEARCH, published 2014).

What was measured:
hHDAC4-FLAG = target: T1, hHDAC4-FLAG (human, UniProt P56524 1-1084, limits assumed); assay: co-immunoprecipitation from co-transfected HEK 293 cells: anti-FLAG IP, anti-Myc blot
T1 construct: Species is read from the prefix 'h' of the plasmid name; also called pCMX-hHDAC4-FLAG; not shown: FLAG tag
Source text: (§1) FIG. 10. Identification of proteins interacting with WDR13. […] B) Immunolocalization of WDR13 protein in HELA cells transfected with pCMV-FLAG-Wdr13 (SEQ ID NO: 3) vector using anti FLAG antibody. C) Silver stained gel of immunoprecipitated proteins using anti FLAG antibody from HELA cells transfected with pCMV-FLAG control and pCMV-FLAG-Wdr13 vectors having SEQ ID NO: 3.
(§2) FIG. 11. Interactions of WDR13 with ERs, HDACs and PHIP1 A) HEK 293 cells were co-transfected with FLAG-Wdr13 (from the position 922 to 2443 in SEQ ID NO: 3) and GFP-ERα, grown in the presence or absence of estradiol. The cell lysate was immunoprecipitated with anti FLAG antibody and immunoblotted with anti GFP antibody. […] B) HEK 293 cells were co-transfected with FLAG-Wdr13 (from the position 922 to 2443 in SEQ ID NO: 3) and Myc-ERβ I (from the position 900-2673 in SEQ ID NO: 6), grown in the presence or absence of estradiol. The cell lysate was immunoprecipitated with anti FLAG antibody and immunoblotted with anti Myc antibody. […] C) HEK 293 cells were co-transfected with Myc-Wdr13 (from the position 900 to 2448 in SEQ ID NO: 4)/various FLAG-HDACs and the cell lysate was immunoprecipitated with anti FLAG antibody and immunoblotted with anti Myc antibody.

mHDAC2-FLAG = target: T2, mHDAC2-FLAG (mouse, UniProt P70288 1-488); assay: as above
T2 construct: Species is read from the prefix 'm' of the plasmid name; also called pCMX-mHDAC2-FLAG; not shown: FLAG tag
Source text: as §1, §2

T2 sequence (P70288 whole entry): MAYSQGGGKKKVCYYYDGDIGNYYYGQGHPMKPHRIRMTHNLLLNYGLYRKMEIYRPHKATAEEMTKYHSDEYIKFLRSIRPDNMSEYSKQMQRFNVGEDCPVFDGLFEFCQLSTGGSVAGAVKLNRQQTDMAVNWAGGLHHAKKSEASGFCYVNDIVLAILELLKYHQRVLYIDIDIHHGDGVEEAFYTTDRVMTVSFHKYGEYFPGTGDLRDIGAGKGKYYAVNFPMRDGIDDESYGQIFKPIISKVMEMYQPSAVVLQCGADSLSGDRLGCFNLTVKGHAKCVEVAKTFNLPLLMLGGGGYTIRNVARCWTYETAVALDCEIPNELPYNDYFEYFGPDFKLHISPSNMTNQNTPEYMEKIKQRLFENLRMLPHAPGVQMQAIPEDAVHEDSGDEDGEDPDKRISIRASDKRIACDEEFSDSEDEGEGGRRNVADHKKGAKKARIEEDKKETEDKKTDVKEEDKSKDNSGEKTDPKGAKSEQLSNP
T1 sequence (P56524 whole entry): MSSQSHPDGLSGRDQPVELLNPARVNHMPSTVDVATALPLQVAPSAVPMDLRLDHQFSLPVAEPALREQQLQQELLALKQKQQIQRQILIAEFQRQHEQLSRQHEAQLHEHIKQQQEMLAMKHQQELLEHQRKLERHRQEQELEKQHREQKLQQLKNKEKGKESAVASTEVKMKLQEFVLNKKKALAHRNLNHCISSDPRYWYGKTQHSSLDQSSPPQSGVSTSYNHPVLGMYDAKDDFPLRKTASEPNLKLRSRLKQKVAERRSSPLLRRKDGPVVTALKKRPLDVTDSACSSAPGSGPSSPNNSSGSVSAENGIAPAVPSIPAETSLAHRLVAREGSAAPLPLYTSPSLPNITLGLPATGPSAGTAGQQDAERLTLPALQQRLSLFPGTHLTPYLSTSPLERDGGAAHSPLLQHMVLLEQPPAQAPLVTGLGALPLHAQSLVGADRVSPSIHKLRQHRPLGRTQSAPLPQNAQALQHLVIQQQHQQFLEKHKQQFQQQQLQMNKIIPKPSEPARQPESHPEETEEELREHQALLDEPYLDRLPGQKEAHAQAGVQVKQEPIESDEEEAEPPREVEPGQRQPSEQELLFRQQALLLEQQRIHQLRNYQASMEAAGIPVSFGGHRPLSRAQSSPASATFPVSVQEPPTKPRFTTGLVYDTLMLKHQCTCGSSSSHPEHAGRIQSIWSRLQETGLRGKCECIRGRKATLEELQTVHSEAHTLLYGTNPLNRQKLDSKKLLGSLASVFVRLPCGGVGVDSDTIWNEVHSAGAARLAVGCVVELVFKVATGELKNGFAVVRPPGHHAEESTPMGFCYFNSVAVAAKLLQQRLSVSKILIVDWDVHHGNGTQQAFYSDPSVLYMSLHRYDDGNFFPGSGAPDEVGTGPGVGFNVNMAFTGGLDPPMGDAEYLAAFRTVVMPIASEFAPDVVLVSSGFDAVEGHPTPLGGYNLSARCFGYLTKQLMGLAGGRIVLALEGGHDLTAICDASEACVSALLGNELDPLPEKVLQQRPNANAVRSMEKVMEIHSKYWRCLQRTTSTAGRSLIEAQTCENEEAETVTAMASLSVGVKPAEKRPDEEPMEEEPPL

- binding result (hHDAC4-FLAG): no binding
- binding result (mHDAC2-FLAG): no binding
B1: Myc WDR13 fusion protein (other, mouse, UniProt Q91V09 1-485, looked up)
chain: MAAVWQQVLAVDARYNAYRTPTFPQFRTQYIRRRSQLLRENAKAGHPPALRRQYLRLRGQLLGQRYGPLSEPGSARAYSNSIVRSSRTTLDRMEDFEDDPRALGARGHRRSVSRGSYQLQAQMNRAVYEDRPPGSVVPTSVAEASRAMAGDTSLSENYAFAGMYHVFDQHVDEAVPRVRFANDDRHRLACCSLDGSISLCQLVPAPPTVLHVLRGHTRGVSDFAWSLSNDILVSTSLDATMRIWASEDGRCIREIPDPDGAELLCCTFQPVNNNLTVVGNAKHNVHVMNISTGKKVKGGSSKLTGRVLALSFDAPGRLLWAGDDRGSVFSFLFDMATGKLTKAKRLVVHEGSPVTSISARSWVSREARDPSLLINACLNKLLLYRVVDNEGALQLKRSFPIEQSSHPVRSIFCPLMSFRQGACVVTGSEDMCVHFFDVERAAKAAVNKLQGHSAPVLDVSFNCDESLLASSDASGMVIVWRREQK
notes: Overexpressed in HEK 293 cells; (mouse gene); also called pCMV-Myc-Wdr13; not shown: Myc peptide at the N-terminus, from the pCMV-Myc vector
